Data taken from PMC8556268.

T1: Biotinylated Tir-10_v2 (Biotin-Ahx-EHI-pY-DEVAAD)
T1 chain: EHIYDEVAAD


Target: T1, Biotinylated Tir-10_v2 …
Experiment: SPR; Biacore T100, 25 °C, Series S SA chip, about 15 RUs of biotinylated peptide captured; 10 mM HEPES pH 7.4, 150 mM NaCl, 3 mM EDTA, 0.05% P20, 0.1 mg/mL BSA; analytes 60 nM free SH2, 10 nM tcTRP24_(8)SS-SH2_(2), 10 nM tcTRP24_(8)SS; 50 μL/minute

Binder	maximum binding response
tcTRP24_(8)SS-SH2_(2) (trimeric tcTRP24 particle with two Nck SH2 domains in each subunit, six in all), P16333 282-376; P16333 282-376 (protein, modifications not checked) SELAARCLIILFQQLVELARLAIESGDEELLRRVSEWLEEVIKDMRRVVEQALREGNSELAARILIILFQQLVELARLAIESGDEELLRRVSEWLEEVIKDMRRVVEQALREGNWYYGKVTRHQAEMALNERGHEGDFLIRDSESSPNDFSVSLKAQGKNKHFKVQLKETVYCIGQRKFSTMEELVEHYKKAPIFTSEQGEKLYLVKHLSELAARILIILFQQLVELARLAIESGDEELLRRVSEWLEEVIKDMRRVVEQALREGNSELAARILIILFQQLVELARLAIESGDEELLRRVSEWLEEVIKDMRRVVEQALREGNSELAARILIILFQQLVELARLAIESGDEELLRRVSEWLEEVIKDMRRVVEQALREGNSELAARILIILFQQLVELARLAIESGDEELLRRVSEWLEEVIKDMRRVVEQALREGNWYYGKVTRHQAEMALNERGHEGDFLIRDSESSPNDFSVSLKAQGKNKHFKVQLKETVYCIGQRKFSTMEELVEHYKKAPIFTSEQGEKLYLVKHLSELAARILIILFQQLVELARLAIESGDEELLRRVSEWLEEVIKDMRRVVEQALREGNSELACRILIILFQQLVELARLAIESGDEELLRRVSEWLEEVIKDMRRVVEQALREGN	123 RUs
free SH2 domain derived from the Nck adapter protein, P16333 282-376 (domain or fragment, modifications not checked) WYYGKVTRHQAEMALNERGHEGDFLIRDSESSPNDFSVSLKAQGKNKHFKVQLKETVYCIGQRKFSTMEELVEHYKKAPIFTSEQGEKLYLVKHL	125 RUs
